Test results reported in the RNAGym collection of RNA variant scans (doi:10.1021/acssynbio.7b00057).

B1: Pistol ribozyme (parent)
chain: GGGUCGUUGUUCCAUAAUCGCGUGGAUAUGGCACGCAAGUUUCUACCGGGCACCGUAAAUGUCCGACUGGAGCCGUUCGGGCGGCUAUAAACAGACCUCAGGCCCGAAGCGUGGCGGCACCUGCCGCCGGUGGUAAAAAAGAUCGGAAGAGCACACGUCU

Variants of: B1
Test: aptazyme ON/OFF ratio, guanine; higher = stronger switching; co-transcriptional cleavage with and without guanine

| Variant | aptazyme ON/OFF ratio |
| --- | --- |
| U7A U8A U10C C12A C13A | 1.13 |
| U7A U8C G9U U11G C12A C13G | 1.27 |
| U8A U11A C12U C13U | 1.18 |
| U7A U8C G9C U10A U11A C12U C13G | 1.08 |
| U7A U8G G9C U10C U11C C12G C13A | 1.29 |
| U7G U8G G9C U10C U11A C12A C13A | 1.33 |
| U8G G9U U10G C13G | 1.03 |
| U7A G9A U10A U11G C12U | 1.17 |
| U7G U8A G9C U10A U11C C13G | 1.04 |
| U7G G9A C13U | 1.49 |
| U7G U8A G9C U10G U11C C12U C13G | 1.03 |
| U7G U8G G9C U10C U11G C13A | 1.38 |
| U7G U8A G9C U10C C12A | 1.02 |
| U7G U8C U10C U11C C12G C13U | 1.14 |
| U7C U8G U10A U11C C12U | 1.04 |
| U7A U8C U10G U11G C12A | 1.25 |
| U8A G9U C12U C13G | 1.25 |
| G9C U11A C13U | 1.3 |
| U7G U8C G9U U10A C12G C13A | 1.13 |
| U7G U8G G9U U11G C13G | 1.19 |
| U7A G9C U11A C12U C13U | 1.16 |
| U7A U8C G9U U10A C13G | 1.08 |
| U11A C12G C13A | 1.11 |
| U7A U8C G9U U10C C12G C13A | 1.13 |

| Variant | aptazyme ON/OFF ratio |
| --- | --- |
| U8A U10A U11A C13G | 1.16 |
| U7G U8G G9C U10C C12A C13G | 1.27 |
| U8A G9U U10C C12G | 1.04 |
| U7G U8A G9A U11G C12G | 1.41 |
| U7A U8C U10C C12U | 3.63 |
| U7C U8A G9U U10G U11C C13U | 1.05 |
| U7G U8C G9U U10C U11G C12G | 1.1 |
| U7G U8A G9C U11A C12A C13G | 1.05 |
| U7G U8C G9C U10G C12A C13G | 1.1 |
| U7C G9C U10A U11C C12G C13U | 1.17 |
| G9C U10A C12G C13A | 1.31 |
| U7C U8A C12U C13A | 1.17 |
| U7A U8G U10C U11C C12U C13A | 1.45 |
| U7A U10C C13U | 1.13 |
| U7A U8C G9C U11G C12G C13A | 1.12 |
| U7C G9C U11G C13U | 1.06 |
| U7G U8A G9C U11G C12G C13A | 1.01 |
| U8C G9A U10G U11A C12A | 1.19 |
| U7C U8G G9C C12G C13G | 1.12 |
| U7A U8C G9C C13G | 1.06 |
| U7G U8G U10C U11A C12U | 1.36 |
| U7A U8A G9A U10C U11A C12U C13G | 1.16 |
| U7A U8A G9A U10G U11G C12A C13A | 1.2 |
| U7C U8A G9A U10C U11G C12U | 1.22 |

| Variant | aptazyme ON/OFF ratio |
| --- | --- |
| U7G U8A G9C U10C C12G C13G | 1.01 |
| U8A G9A U11A C12G C13U | 1.04 |
| U7G U8C U10A U11A C12A C13A | 1.13 |
| U7G U8A G9C U10G U11A C12A C13A | 1.04 |
| G9U U10G C12A C13U | 1.45 |
| U8G G9U U10A C13U | 1.09 |
| U7C U8A G9A C13U | 1.18 |
| U7G G9U U11G C12A C13A | 1.11 |
| U7A U8A G9A U10G U11C C12A C13U | 1.19 |
| U7C U8A G9A C12U | 1.3 |
| U7G U8G G9C U10A U11G C12U C13A | 1.07 |
| U7G U8C U10C U11G C12G | 1.15 |
| U8A G9A U11G C12U C13G | 1.18 |
| U7G U8A G9A U10A U11C C12A | 1.12 |
| U7G U8A G9A U10G U11C C13G | 1.08 |
| U7C U10C C12G C13U | 1.21 |
| U7A U8A U10C U11A C13A | 1.13 |
| U7C U8C G9U U10C U11G C12A | 1.16 |
| U7A U8G U10C U11G C12A | 1.43 |
| U7G G9C U10A U11C C13G | 1.09 |
| U7A U8A G9A U10C U11G C12G | 1.23 |
| U7G U8C G9C U10A U11C C12A | 1.33 |
| U8G G9U U10C U11G C12A C13G | 1.11 |
| U7C U8A G9A U11G C12A C13G | 1.21 |

| Variant | aptazyme ON/OFF ratio |
| --- | --- |
| U7C U8A G9A U10A U11G C12A | 1.05 |
| U7G U8G U11G C12G | 1.28 |
| U7G U8A G9C U10C U11A C12A C13U | 1.03 |
| U7G U8A U10A U11A C13A | 1.2 |
| U7A U8A U10G U11G C12G C13G | 1.09 |
| U8C U10C U11G C12A C13U | 1.33 |
| U7G U8C G9C U10G U11A C13U | 1.05 |
| U7C U8A G9A U10C U11A C12G C13U | 1.18 |
| U7A U8G G9C U10C U11G C12U C13G | 1.15 |
| U7A U8G G9U U10G U11G C12G C13A | 1.16 |
| U8A U10G C13A | 1.52 |
| U7G U8G G9C U10A U11A C13G | 1.02 |
| U7A U10G U11A C12G C13A | 1.08 |
| U7C U8C G9U U11G C12A C13A | 1.19 |
| U7C U8A G9A U11C C12U C13A | 1.17 |
| U7A U8C G9U U10C U11G | 1.22 |
| U7C U10G C12U C13U | 1.24 |
| U7G U8A G9A U10G C12A C13G | 1.06 |
| U7A U8G G9U U10G U11A C13A | 1.17 |
| G9U U10A U11A C12U C13A | 1.09 |
| U7G G9C U10C U11C C13U | 1.03 |
| U7G U8A G9C U11G C12U C13G | 1.07 |
| U7C U8G G9C U10A C13U | 1.15 |
| U7G G9U U10C U11C C12G C13G | 1.2 |

| Variant | aptazyme ON/OFF ratio |
| --- | --- |
| U7G U8G G9U U11A C12A C13A | 1.07 |
| U7G U8A U10C U11G C12U | 1.32 |
| U8G U11C C13U | 1.37 |
| U7C G9A U11G | 1.37 |
| U7A U8G G9U U10G U11C C13G | 1.07 |
| U7A U8C U10A U11G C12U C13U | 1.26 |
| U7A U8G G9A U10C U11C C12G C13A | 1.11 |
| U7A U8A G9A U10C U11G C12A C13G | 1.09 |
| U7G U8G U10A U11C C12U C13U | 1.5 |
| U8A G9A U10C U11C C12U C13U | 1.05 |
| U8A G9A U11G C12A C13U | 1.09 |
| U8A U10G C12U | 1.58 |
| U7A G9U U10G C12U C13U | 1.87 |
| U7G G9C U11G C12A C13A | 1.21 |
| U7G U8C U10A U11G C13U | 1.23 |
| U7C U8A G9U U10C U11G C12U C13G | 1.13 |
| U7G U8C U10G U11G C12U C13U | 1.34 |
| U7C U8C G9A U10A | 1.54 |
| U7C U8C G9C U10A C12A C13G | 1.14 |
| U7A U8C U10C U11A C13G | 1.16 |
| U7C U8C G9U U10C U11C C12A C13U | 1.16 |
| U7C U8A U10A U11C C12U C13G | 1.04 |
| G9U U10G U11G C12G C13U | 1.27 |
| U7C U8G G9U U11A C12G C13A | 1.05 |

| Variant | aptazyme ON/OFF ratio |
| --- | --- |
| U8C U10A U11C C13A | 1.02 |
| U8A G9C U11G C12U C13A | 1.31 |
| U7G U8G G9U U10C U11C C12U | 1.53 |
| U7G U8G U10G U11A C12G C13U | 1.47 |
| U7G U8G G9A U10C U11C C12A C13G | 1.2 |
| G9U U11A C12A | 2.63 |
| U8A G9A U10A U11A C13U | 1.09 |
| U7A U8C U10G U11G C12G | 1.04 |
| U10A U11G C12G C13G | 1.42 |
| U7A G9C U11A C13G | 1.08 |
| U7C U11A C12A C13U | 1.28 |
| U7C U8G G9A U10A U11A C12G C13U | 1.21 |
| U7C U8C G9A U10A C12G C13A | 1.11 |
| U8A U10G U11C | 1.02 |
| U8G G9C U10C U11G C12U | 1.25 |
| U7G U8C G9A U10A U11G C12U C13G | 1.2 |
| U7G U8C G9U U10A U11A C12A C13U | 1.32 |
| U7A G9U U10C C12G | 1.29 |
| U7A G9U U11A C12G C13U | 1.25 |
| U8A G9A U11A C12U | 1.05 |
| U7C U8G U11G C12G C13A | 1.07 |
| U7C U11G C12G C13G | 1.27 |
| U8C G9U U10G U11A C12U C13G | 1.16 |
| U8C G9A C13U | 1.43 |

| Variant | aptazyme ON/OFF ratio |
| --- | --- |
| U7G U8C U11G C13A | 1.29 |
| G9C U10A U11C C13G | 1.04 |
| U7C G9U U10G U11C C12U C13A | 1.19 |
| U7G U8C G9U U10G U11A C12G | 1.34 |
| U7C G9C U10C U11A C12G C13A | 1.31 |
| U7G U8G U10C U11G C12U C13A | 1.16 |
| U7G U8A G9C U10C U11A C12A C13A | 1.01 |
| U7A G9C U10G C13U | 1.33 |
| U7C U8A U11C C13A | 1.1 |
| U7C U8C G9A U11C | 1.82 |
| U7G U8C G9U C12U | 4.27 |
| U7C G9C U10G U11C C12A C13A | 1.12 |
| U8G G9U U10A U11C C12U C13A | 1.08 |
| U7C U8C G9A U11G C12A C13G | 1.25 |
| U7C U8C G9A U10C U11C C13G | 1.21 |
| U7G G9U U10A U11G C12U C13G | 1.12 |
| U7C U8A G9C U10G U11G C12A | 1.23 |
| U7A U8C G9U U10C C12U C13A | 1.19 |
| U8G G9U U10A U11A C12A | 1.34 |
| U7C U10C U11C C12G C13A | 1.25 |
| U8C U10G C12U C13A | 1.21 |
| U7C U8G G9C U10A C12G C13U | 1.19 |
| U7A U8A G9U U10C U11G | 1.33 |
